Sequences and labels used below:
B1: Bovine clathrin heavy chain residues 1074–1675 (hub), wild type (domain or fragment, UniProt P49951 1074-1675, looked up)
chain: KFDVNTSAVQVLIEHIGNLDRAYEFAERCNEPAVWSQLAKAQLQKGMVKEAIDSYIKADDPSSYMEVVQAANTSGNWEELVKYLQMARKKARESYVETELIFALAKTNRLAELEEFINGPNNAHIQQVGDRCYDEKMYDAAKLLYNNVSNFGRLASTLVHLGEYQAAVDGARKANSTRTWKEVCFACVDGKEFRLAQMCGLHIVVHADELEELINYYQDRGYFEELITMLEAALGLERAHMGMFTELAILYSKFKPQKMREHLELFWSRVNIPKVLRAAEQAHLWAELVFLYDKYEEYDNAIITMMNHPTDAWKEGQFKDIITKVANVELYYRAIQFYLEFKPLLLNDLLMVLSPRLDHTRAVNYFSKVKQLPLVKPYLRSVQNHNNKSVNESLNNLFITEEDYQALRTSIDAYDNFDNISLAQRLEKHELIEFRRIAAYLFKGNNRWKQSVELCKKDSLYKDAMQYASESKDTELAEELLQWFLQEEKRECFGACLFTCYDLLRPDVVLETAWRHNIMDFAMPYFIQVMKEYLTKVDKLDASESLRKEEEQATETQPIVYGQPQLMLTAGPSVAVPPQAPFGYGYTAPAYGQPQPGFGYSM

The data set “crystal structure” deals with the molecule itself. The experiment in a line: crystal structure.
For data set [1], the target named is B1. The experiment in a line: SPR. On the technique in general: In SPR one partner is held on a chip, and binding of the other changes the refractive index at the surface.
The target in data set [2] is T1, KR-mutant CHC hub (K1163E and R1165D) (bovine, UniProt P49951 1074-1675, K1163E | R1165D).
T1 sequence (looked up): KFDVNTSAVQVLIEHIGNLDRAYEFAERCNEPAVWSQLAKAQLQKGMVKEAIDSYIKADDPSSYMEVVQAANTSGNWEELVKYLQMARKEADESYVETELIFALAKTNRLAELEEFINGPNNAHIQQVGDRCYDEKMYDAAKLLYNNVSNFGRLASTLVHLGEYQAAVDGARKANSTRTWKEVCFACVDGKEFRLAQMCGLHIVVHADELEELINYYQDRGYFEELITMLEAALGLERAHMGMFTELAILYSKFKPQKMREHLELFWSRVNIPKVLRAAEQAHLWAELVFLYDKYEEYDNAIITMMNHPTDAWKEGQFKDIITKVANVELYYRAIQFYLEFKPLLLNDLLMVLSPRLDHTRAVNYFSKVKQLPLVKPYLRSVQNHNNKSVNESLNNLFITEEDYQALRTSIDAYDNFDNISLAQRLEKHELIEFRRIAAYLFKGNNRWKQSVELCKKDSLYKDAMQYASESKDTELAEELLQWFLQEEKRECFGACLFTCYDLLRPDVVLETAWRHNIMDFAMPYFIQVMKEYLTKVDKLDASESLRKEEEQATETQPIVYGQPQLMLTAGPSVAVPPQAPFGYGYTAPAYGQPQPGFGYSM
The experiment in a line: SPR.

In general, stoichiometry N refers to a count of units in the complex or per binding partner. Take B1: the “stoichiometry N” value in the data set “crystal structure” was 3.

B2: Human neuronal LCb, his-tagged fusion protein, wild type (natural protein, UniProt P09497 1-229, looked up)
chain: MADDFGFFSSSESGAPEAAEEDPAAAFLAQQESEIAGIENDEGFGAPAGSHAAPAQPGPTSGAGSEDMGTTVNGDVFQEANGPADGYAAIAQADRLTQEPESIRKWREEQRKRLQELDAASKVTEQEWREKAKKDLEEWNQRQSEQVEKNKINNRIADKAFYQQPDADIIGYVASEEAFVKESKEETPGTEWEKVAQLCDFNPKSSKQCKDVSRLRSVLMSLKQTPLSR
For orientation: Kd means the free concentration of one partner at which half of the binding sites on the other are occupied at equilibrium, for simple one-to-one binding. In the case of B2, the values for the equilibrium dissociation constant (Kd) in data set [1] and in data set [2] were 25 nM and 59.1 nM, respectively.

These data come from paper PMC2975025 (Developmental cell, 2010).
